Assay results taken from US9289490B2, “Combinations and uses thereof” (MORPHOSYS AG, priority 2010, dated 2016).
Where “and” joins values, the source holds several entries; their conditions need not be identical. Equal values may be shown once.

How the values were obtained:
AMO-1 cells = experiment: ADCC with human PBMCs, flow cytometry (CalceinAM/PI); type: cell-based; conditions: Exp. 1-3
Description: For Tables 3b-c, “Theoretical Combination” represents the addition of the values of MOR202 alone and the values of LEN alone. The normalized data of Table 3b is calculated as follows. Therefore, the specific killing values of Table 3b are calculated by subtracting the values of the controls. Then the specific killing values are compared to the MOR202 group, which is set as 1.
The constant m determines the shape of the dose-effect curve. We used Excel Fit software to carry out a linear regression calculation to estimate the parameters m and D50.
The CI-isobol method provides a quantitative assessment of synergism between drugs. A combination index (CI) is estimated from dose-effect data of single and combined drug treatments. […] Formally, the combination index (CI) of a combined drug treatment is defined as CI=D1/Dx1+D2/Dx2
The data is analysed in the following way: Antagonistic(AB)/C<(A/C)×(B/C) Additive(AB)/C=(A/C)×(B/C) Synergistic(AB)/C>(A/C)×(B/C) where A is the treatment with LEN alone; B is the treatment with MOR202 alone; C is response to the treatment vehicle; AB is combination of treatments A and B.

NCI-H929 cells = experiment: as above
Description: PBMC's were isolated by density gradient centrifugation of freshly isolated human blood. Isolated blood from different donors were layered on a defined volume of Biocoll (Biochrome AG; CAT No.:L6115; LOT No.:1050T) in a Falcon tube and centrifuged at 380 g. The PBMCs were isolated and supplemented with RPMI medium.
Cell suspensions were further incubated for 4 h at 37° C. To detect dead AMO-1 cells, cell suspensions were challenged with propidium iodide (PI) and subsequently analyzed in flow cytometry. Target cells were separated via gating of CalceinAM positive cell populations, and cells killed via ADCC were quantified.
Single and combination doses of 5 μM LEN and 15 μg/ml of MOR03207 and 0.2 or 0.07 μg/ml MOR202 were used.
Single and combination doses of 5 μM LEN and 15 μg/ml of MOR03207 and 0.2* or 0.07 μg/m MOR202 were used.

B1: MOR03207: binds lysosyme, and is used as isotype control, as it is IgG1 (SEQ ID NO: 8, 9) (antibody, V domains shown)
VH: QVQLQQSGPGLVKPSQTLSLTCAISGDSVSSNSAAWSWIRQSPGRGLEWLGRIYYRSKWYNDYAVSVKSRITINPDTSKNQFSLQLNSVTPEDTAVYYCARLDHRYHEDTVYPGMDVWGQGTLVTVSS
VL: DIELTQPPSVSVAPGQTARISCSGDNLPAYTVTWYQQKPGQAPVLVIYDDSDRPSGIPERFSGSNSGNTATLTISGTQAEDEADYYCASWDPSSGVVFGGGTKLTVLGQ
modifications: /mol_type=“protein” /note=“variable heavy chain” /organism=“synthetic construct”; /mol_type=“protein” /note=“variable light chain” /organism=“synthetic construct”
For B1, the “% dead cells, MOR03207 15 μg/ml + DMSO (Table 4a)” value (AMO-1 cells; control group of the effector-only experiments) was 15.77 % dead cells and 15.97 % dead cells and 11.45 % dead cells, the “% dead cells (raw data, Table 4a)” value (AMO-1 cells; only PBMCs (effector cells) treated with LEN before MOR202, LEN 10 μM, MOR202 and MOR03207 15 μg/ml) was 17.42 % dead cells and 16.17 % dead cells and 12.17 % dead cells and the “% dead cells (raw data, Table 7a), Exp. 2 and 3” value (NCI-H929 cells; PBMCs and NCI-H929 cells treated with LEN before MOR202, LEN 5 μM, MOR202 0.07 μg/ml, MOR03207 15 μg/ml) was 14.09 % dead cells and 19.20 % dead cells. For the same molecule, the “% dead cells (raw data, Table 7a), Exp. 1” value (NCI-H929 cells; PBMCs and NCI-H929 cells treated with LEN before MOR202, LEN 5 μM, MOR202 0.2 μg/ml (*), MOR03207 15 μg/ml) was 17.81 % dead cells, the “% dead cells, MOR03207 (15 μg/ml) + DMSO (Table 7a)” value (NCI-H929 cells; control group, PBMCs and NCI-H929 cells LEN-treated series, Exp. 1-3) was 13.74 % dead cells and 18.27 % dead cells and 20.26 % dead cells and the “% dead cells, MOR03207 (15 μg/ml) + DMSO (Table 8a)” value (NCI-H929 cells; control group, effector-only series, Exp. 1-3) was 24.43 % dead cells and 19.52 % dead cells and 24.16 % dead cells. For the same molecule, the “% dead cells (raw data, Table 8a), Exp. 2 and 3” value (NCI-H929 cells; only effector cells treated with LEN before MOR202, LEN 5 μM, MOR202 0.07 μg/ml, MOR03207 15 μg/ml) was 27.10 % dead cells and 23.19 % dead cells and the “% dead cells (raw data, Table 8a), Exp. 1” value (NCI-H929 cells; only effector cells treated with LEN before MOR202, LEN 5 μM, MOR202 0.2 μg/ml (*), MOR03207 15 μg/ml) was 17.07 % dead cells.
